Source: the supplement of paper PMC9112550, “Optimization of the antimicrobial peptide Bac7 by deep mutational scanning” (BMC Biology, 2022)

tested on: Escherichia coli TOP10; assay: shrunken log2 fold change of peptide-encoding DNA abundance (4.5 h post-induction vs induction); higher = less antimicrobial activity (less host growth inhibition); settings: time post-induction: 4.5 h; library: site-saturation at positions 5, 18, 19, 20
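Also: peptides expressed intracellularly from a pBAD plasmid library in pooled LB shake-flask culture, induced with 0.3% L-arabinose, DNA abundance read by NGS, three biological replicates, DESeq2 with apeglm shrinkage.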

Row | Sequence | shrunken log2 fold change
1 | RRIRCRPPRLPRPRPRPFKFPRP | -0.788
2 | RRIRDRPPRLPRPRPRPVCNPRP | 0.861
3 | RRIRKRPPRLPRPRPRPLQDPRP | 0.485
4 | RRIRIRPPRLPRPRPRPDLPPRP | -0.334
5 | RRIRNRPPRLPRPRPRPLFAPRP | 0.0932
6 | RRIRIRPPRLPRPRPRPMNKPRP | -0.627
7 | RRIRARPPRLPRPRPRPKYMPRP | -0.477
8 | RRIRKRPPRLPRPRPRPCGIPRP | 0.0772
9 | RRIRERPPRLPRPRPRPDFCPRP | -0.196
10 | RRIRGRPPRLPRPRPRPCDSPRP | 0.0374
11 | RRIRGRPPRLPRPRPRPRPIPRP | 0.635
12 | RRIRMRPPRLPRPRPRPEMMPRP | 0.316
13 | RRIRNRPPRLPRPRPRPDQKPRP | -0.000687
14 | RRIRCRPPRLPRPRPRPGDAPRP | 0.466
15 | RRIRHRPPRLPRPRPRPMMYPRP | -0.0859
16 | RRIRERPPRLPRPRPRPPYIPRP | -0.252
17 | RRIRYRPPRLPRPRPRPYVTPRP | -0.115
18 | RRIRRRPPRLPRPRPRPQMPPRP | 0.283
19 | RRIRWRPPRLPRPRPRPFDCPRP | -0.0389
20 | RRIRGRPPRLPRPRPRPIETPRP | 0.312
21 | RRIRMRPPRLPRPRPRPHEFPRP | 0.224
22 | RRIRSRPPRLPRPRPRPRWSPRP | 0.122
23 | RRIRSRPPRLPRPRPRPFWIPRP | -0.299
24 | RRIRIRPPRLPRPRPRPRGEPRP | 0.0673
25 | RRIRDRPPRLPRPRPRPSNIPRP | -0.182

Row | Sequence | shrunken log2 fold change
26 | RRIRNRPPRLPRPRPRPQNVPRP | -0.0764
27 | RRIRMRPPRLPRPRPRPEIFPRP | 1.27
28 | RRIRTRPPRLPRPRPRPKNSPRP | -0.438
29 | RRIRARPPRLPRPRPRPQYRPRP | -0.208
30 | RRIRWRPPRLPRPRPRPMFRPRP | -0.129
31 | RRIRWRPPRLPRPRPRPRILPRP | 0.188
32 | RRIRTRPPRLPRPRPRPDHIPRP | -0.242
33 | RRIRERPPRLPRPRPRPMPKPRP | 0.153
34 | RRIRPRPPRLPRPRPRPTGYPRP | -0.151
35 | RRIRRRPPRLPRPRPRPNERPRP | -0.0664
36 | RRIRPRPPRLPRPRPRPPQWPRP | 0.403
37 | RRIRWRPPRLPRPRPRPEHIPRP | -0.14
38 | RRIRSRPPRLPRPRPRPGCIPRP | 0.0242
39 | RRIRHRPPRLPRPRPRPQKPPRP | -0.0624
40 | RRIRVRPPRLPRPRPRPGPLPRP | 0.0392
41 | RRIRVRPPRLPRPRPRPEICPRP | 0.2
42 | RRIRIRPPRLPRPRPRPDDIPRP | -0.151
43 | RRIRYRPPRLPRPRPRPLKQPRP | -0.0485
44 | RRIRHRPPRLPRPRPRPDAKPRP | -0.0555
45 | RRIRLRPPRLPRPRPRPRGDPRP | 0.553
46 | RRIRHRPPRLPRPRPRPLCKPRP | 0.0111
47 | RRIRMRPPRLPRPRPRPWKRPRP | -0.0605
48 | RRIRRRPPRLPRPRPRPQKGPRP | -0.138
49 | RRIRERPPRLPRPRPRPFNEPRP | -0.226
50 | RRIRIRPPRLPRPRPRPTTCPRP | -0.447

Row | Sequence | shrunken log2 fold change
51 | RRIRHRPPRLPRPRPRPRGYPRP | -0.144
52 | RRIRCRPPRLPRPRPRPITWPRP | -0.189
53 | RRIRMRPPRLPRPRPRPREGPRP | 0.79
54 | RRIRRRPPRLPRPRPRPFRRPRP | 0.322
55 | RRIRYRPPRLPRPRPRPVGFPRP | -0.308
56 | RRIRVRPPRLPRPRPRPRRPPRP | 0.34
57 | RRIRRRPPRLPRPRPRPQQLPRP | -0.0976
58 | RRIRTRPPRLPRPRPRPTTSPRP | 0.0942
59 | RRIRARPPRLPRPRPRPFEKPRP | -0.122
60 | RRIRRRPPRLPRPRPRPENNPRP | 0.0497
61 | RRIRWRPPRLPRPRPRPMCYPRP | -0.308
62 | RRIRSRPPRLPRPRPRPTYFPRP | -0.563
63 | RRIRNRPPRLPRPRPRPWFKPRP | -0.191
64 | RRIRHRPPRLPRPRPRPSYLPRP | -0.683
65 | RRIRGRPPRLPRPRPRPWMNPRP | 0.106
66 | RRIRMRPPRLPRPRPRPWANPRP | -0.0525
67 | RRIRERPPRLPRPRPRPRPKPRP | 0.194
68 | RRIRMRPPRLPRPRPRPQVYPRP | 0.0985
69 | RRIRYRPPRLPRPRPRPFPPPRP | -0.809
70 | RRIRKRPPRLPRPRPRPWGLPRP | -0.22
71 | RRIRWRPPRLPRPRPRPTLDPRP | 0.745
72 | RRIRSRPPRLPRPRPRPFMEPRP | -0.54
73 | RRIRGRPPRLPRPRPRPTPCPRP | 0.662
74 | RRIRIRPPRLPRPRPRPSWEPRP | -0.621
75 | RRIRPRPPRLPRPRPRPEPVPRP | 0.12

Row | Sequence | shrunken log2 fold change
76 | RRIRYRPPRLPRPRPRPEMRPRP | 0.0856
77 | RRIRKRPPRLPRPRPRPSFTPRP | -0.272
78 | RRIRPRPPRLPRPRPRPQCPPRP | -0.172
79 | RRIRFRPPRLPRPRPRPRIGPRP | 0.543
80 | RRIRHRPPRLPRPRPRPLLEPRP | 0.0851
81 | RRIRERPPRLPRPRPRPKWIPRP | -0.54
82 | RRIRKRPPRLPRPRPRPNLIPRP | -0.494
83 | RRIRQRPPRLPRPRPRPEETPRP | -0.0125
84 | RRIRCRPPRLPRPRPRPKMIPRP | -0.727
85 | RRIRYRPPRLPRPRPRPLDQPRP | -0.169
86 | RRIRIRPPRLPRPRPRPIISPRP | -0.101
87 | RRIRMRPPRLPRPRPRPYHCPRP | -0.72
88 | RRIRLRPPRLPRPRPRPWRFPRP | 0.271
89 | RRIRVRPPRLPRPRPRPGHEPRP | -0.0501
90 | RRIRARPPRLPRPRPRPANVPRP | -0.0645
91 | RRIRIRPPRLPRPRPRPMPFPRP | 0.0123
92 | RRIRLRPPRLPRPRPRPARGPRP | 0.565
93 | RRIRKRPPRLPRPRPRPFKEPRP | -0.0549
94 | RRIRCRPPRLPRPRPRPRPNPRP | 0.478
95 | RRIRWRPPRLPRPRPRPKNQPRP | 0.123
96 | RRIRNRPPRLPRPRPRPDCAPRP | 0.315
97 | RRIRVRPPRLPRPRPRPHDVPRP | -0.116
98 | RRIRYRPPRLPRPRPRPKQEPRP | -0.017
99 | RRIRARPPRLPRPRPRPISKPRP | -0.401
100 | RRIRYRPPRLPRPRPRPCGAPRP | -0.324

Row | Sequence | shrunken log2 fold change
101 | RRIRRRPPRLPRPRPRPPYVPRP | 0.181
102 | RRIRRRPPRLPRPRPRPLVIPRP | -0.0686
103 | RRIRPRPPRLPRPRPRPYTVPRP | -0.947
104 | RRIRSRPPRLPRPRPRPISKPRP | -0.211
105 | RRIRMRPPRLPRPRPRPLIIPRP | -0.249
106 | RRIRKRPPRLPRPRPRPTVAPRP | 0.814
107 | RRIRQRPPRLPRPRPRPTIYPRP | -0.552
108 | RRIRNRPPRLPRPRPRPMGYPRP | -0.00459
109 | RRIRWRPPRLPRPRPRPEWYPRP | 0.0654
110 | RRIRTRPPRLPRPRPRPTGPPRP | 0.48
111 | RRIRVRPPRLPRPRPRPADSPRP | -0.0859
112 | RRIRQRPPRLPRPRPRPPGQPRP | 0.136
113 | RRIRQRPPRLPRPRPRPKDYPRP | -0.756
114 | RRIRNRPPRLPRPRPRPEYQPRP | 0.00318
115 | RRIRKRPPRLPRPRPRPEHWPRP | 0.428
116 | RRIRCRPPRLPRPRPRPINIPRP | -0.702
117 | RRIRDRPPRLPRPRPRPHWIPRP | -0.693
118 | RRIRGRPPRLPRPRPRPAMKPRP | 0.311
119 | RRIRSRPPRLPRPRPRPPWVPRP | 0.433
120 | RRIRKRPPRLPRPRPRPMGAPRP | 0.414
121 | RRIRFRPPRLPRPRPRPQKRPRP | 0.297
122 | RRIRQRPPRLPRPRPRPPDWPRP | 0.34
123 | RRIRLRPPRLPRPRPRPDKDPRP | 0.0388
124 | RRIRDRPPRLPRPRPRPGAWPRP | 4.01
125 | RRIRCRPPRLPRPRPRPQYVPRP | -0.345

Row | Sequence | shrunken log2 fold change
126 | RRIRNRPPRLPRPRPRPDLTPRP | -0.112
127 | RRIRPRPPRLPRPRPRPGHKPRP | -0.287
128 | RRIRARPPRLPRPRPRPYFKPRP | -0.551
129 | RRIRYRPPRLPRPRPRPPIIPRP | -0.148
130 | RRIRYRPPRLPRPRPRPVIVPRP | -0.877
131 | RRIRFRPPRLPRPRPRPHAMPRP | 0.203
132 | RRIRMRPPRLPRPRPRPPNPPRP | 0.822
133 | RRIRLRPPRLPRPRPRPCWPPRP | 0.0177
134 | RRIRARPPRLPRPRPRPCMTPRP | 0.591
135 | RRIRIRPPRLPRPRPRPFIYPRP | -0.899
136 | RRIRIRPPRLPRPRPRPCVCPRP | -0.0463
137 | RRIRNRPPRLPRPRPRPVESPRP | -0.165
138 | RRIRGRPPRLPRPRPRPSWSPRP | 0.425
139 | RRIRFRPPRLPRPRPRPGFFPRP | 0.023
140 | RRIRQRPPRLPRPRPRPVQCPRP | -0.16
141 | RRIRARPPRLPRPRPRPTASPRP | 0.74
142 | RRIRTRPPRLPRPRPRPLNGPRP | -0.235
143 | RRIRGRPPRLPRPRPRPASYPRP | -0.14
144 | RRIRNRPPRLPRPRPRPERMPRP | -0.0351
145 | RRIRTRPPRLPRPRPRPRYGPRP | -0.284
146 | RRIRLRPPRLPRPRPRPADAPRP | 0.599
147 | RRIRPRPPRLPRPRPRPDIDPRP | -0.144
148 | RRIRQRPPRLPRPRPRPYNEPRP | -0.184
149 | RRIRTRPPRLPRPRPRPEVMPRP | 0.114
150 | RRIRGRPPRLPRPRPRPWLYPRP | 0.285
